# Literature values as cited in PMC4525192 (European Journal of Nuclear Medicine and Molecular Imaging, 2014).
# System: tumour
# Conditions: intravenously administered
smiles,measurement,value
"C[C@@H](O)[C@@H]1NC(=O)[C@H](CCCCN)NC(=O)[C@@H](Cc2c[nH]c3ccccc23)NC(=O)[C@H](Cc2ccc(O)cc2)NC(=O)[C@@H](NC(=O)[C@@H](Cc2ccccc2)NC(=O)CN2CCN(CC(=O)O)CCN(CC(=O)O)CCN(CC(=O)O)CC2)CSSC[C@@H](C(=O)N[C@H](CO)[C@@H](C)O)NC1=O [DOTATOC, (DOTA^0-Phe^1-Tyr^3) octreotide]",Time after injection at which 80 % of Umax is reached,45 min
same,Time of tumoral accumulation maximum (Umax) after injection,about 70 min
